Molecular target: antithrombin III (plasma purified human AT-III), used as the AT-III/unfractionated heparin complex (human), P01008
Assay: K0.5: AT-III/UFH titrated against FIXa, 10 s, residual cleavage of Mesyl-D-CHG-Gly-Arg-AMC
Details: remark: other sources report otherwise

IC50: 5.88 µM
B1: FIXa-R318Y/R338E/R403E/E410N, P00740 47-191; P00740 227-461 (enzyme)
chain 1: YNSGKLEEFVQGNLERECMEEKCSFEEAREVFENTERTTEFWKQYVDGDQCESNPCLNGGSCKDDINSYECWCPFGFEGKNCELDVTCNIKNGRCEQFCKNSADNKVVCSCTEGYRLAENQKSCEPAVPFPCGRVSVSQTSKLTR
chain 2: VVGGEDAKPGQFPWQVVLNGKVDAFCGGSIVNEKWIVTAAHCVETGVKITVVAGEHNIEETEHTEQKRNVIRIIPHHNYNAAINKYNHDIALLELDEPLVLNSYVTPICIADKEYTNIFLKFGSGYVSGWGRVFHKGYSALVLQYLRVPLVDRATCLESTKFTIYNNMFCAGFHEGGRDSCQGDSGGPHVTEVEGTSFLTGIISWGEECAMKGKYGIYTKVSEYVNWIKNKTKLT

Reference: US20210238260A1
